According to the DeepSol protein solubility set:

Assay: soluble on expression in E. coli; label from the status in PepcDB or PDB records

Sequence | soluble on expression in E. coli
MGSDKIHHHHHHMREIDVHPAFTDLNGSGPDPDLSPLPVVARVGSYSMGWRVEAHAHQRGQLMFVTNGSMRVETRDGSWITPPGRACWIPSAAVHSAIYTQASKMQTVLIAPELLETLPKRCCVIKLTPLLRELVSQAVAINNQYTLHSREHRLMQVLVDQISTAQQAPLFLPEGRDPRLRRVTESLHQNPGDDRSIEAWAQIAGASARTLARLFQKETGMTYSSWRQQLCLIRAVEMLTEGASVTNIALALGYESTAGFTSMFTRSMGESPSNYLTRWSQETTASE | not soluble
TLAAKAAEIHPTSLDTRLDVAAAPAELQQVAQSFNAMLERLDDGYQRLQQFSADLAHEIRTPIGSLMGHGQVALRQPRSNEEYQALIASNQEELERIARMVESILFLARADDVRAAVERSRLDLGEELRRQAEYFEGLAEERGLSLDVQVSGQLRADPQLFRRALSNLLANAIRYASADSLIEVRGLRRSGEFLLSVENACDRLPAEPLSRLFDRFYRGDAARSDAQSSGLGLAIVQAIMRLHGGRAEASAPAPGRIRFDLAFPAQD | not soluble
MGSDKIHHHHHHMIPPASTLRSRLKMQHLRLLLSIEERGSLRQAADALSLSQPAVTKMLQDMEALLGVTLFERHLRGLRPTRFGMAVTRYANLVFSDLANLHDELVSLETGRIGKVRIGAVMAPTPVLMAEVIRRLKRDHPGLNMTVHVDTSDMLVPMLERDQLDLVLGRVPEGWDASHLTFEQLGDERLAVVVGCDHPLAKRTDPTFGELATYPWILQPRPSPMRALIDRSFEEAGVTAPQSTIETAAILMTTSLLTGSDLVAVVPMAVATFHASMGLLHILPVPLPRKLDPYGIVTRLGRPPSASMTLFVDVLRAVVEEGGQ | not soluble
MAHHHHHHMADVDEWRGASFKQEEDHSEATTSLLEKINATTIPVLLRSTNKSLQDLVDELLTLEKIARLGGDALSTQRLAVEVIRVYRVQGDYAKMLLVLEMLMRKRGQTKMTQSAMIAECAVMISDASLPKESRREVLERVVHLTDSRIHVELEHARFAIDLAKLMESEGQKRAACDLLSGLHVETITNMPRAEKLDALNCLIRLCLELEDYEHTPLVSRRINHRALARAESREAKLTYFELMRHYYTQRKSYFNVARCWYETYLTETEEGAKLAALSSMAVHYLIAEHATPKALEDLAECTAFSPATYFAERNAAIQGITTKLQKQLEDIPQLQYLLQRFTSIELIREKVAREVETLCANHPQLAGHEDRQLLLRSRCSEHDLLVVSRFYRRLRLDRLAQLVGLTPEHTEEFLMMMVASKTLYAKMDRVDGLVVFEAKKNATEVINGWNEAVERSVALLDKASHLIVKERMLHNISAARAQQAVTL | not soluble
MGSDKIHHHHHHMTKNKLNQNSYELEKVKERIEQILSQFFPEQIMKDLPLYGKMLRVRLSILSFKNRGVEIGEDAISSLAALELVHLASLLHDDVIDGARFRRGKETINFMYGDKAAVAAGDLVLVSAFHTVEEIGNNKLRRAFLNVIGKMSEAELIEQLSRYKPITKEEYLRIVEGKSGALFGLALQLPALLEGELGEDLYNLGVTIGTIYQMFDDIMDFAGMEKIGKDGFLDLKNGVASFPLVTAMEKFPEARQMFENRDWSGLMSFMREKGILKECEETLKVLVKNVIIENSWLRDFVDGIFKIKISS | not soluble
MIALFNKLLDWFKALFWKEEMELTLVGLQYSGKTTFVNVIASGQFNEDMIPTVGFNMRKITKGNVTIKLWDIGGQPRFRSMWERYCRGVSAIVYMVDAADQEKIEASKNELHNLLDKPQLQGIPVLVLGNKRDLPGALDEKELIEKMNLSAIQDREICCYSISCKEKDNIDITLQWLIQHSKSRRS | soluble
MGSDKIHHHHHHMSARNETGYERVLVPVGDKSDPNMLTELSSILVDPRRGAVRFTHVTTDRSFVGSQENWRTGSDSVAESQHTLREEGIESTGTIRTASSALDGILEEAEEYEADAILIGWTDKDSVSSLVDKLLRKAGCDVIVFSADRDPIDTDSILVPVVVKPDANRLQMLAIMSQRTGASITFTYVTGDEGTDEEGRGLLDQSAERLAEYGVQAETELKSASSAVDALGQLSEDYDVMVIGTSRGWWLRKTLFGRKTDKIAQEAQCSLLMHKWQGEVPPES | not soluble
TPTVDHVLLNIALNLSSNRSHEQQYQNLIDGVAQVFPCDASCLFIFDEDGFLTPVAVKGLSSSVLGRRYFPKAHPRLDAIIHSREPVRFDADCSLPDPFDGTLLTEDQCIDVHDCMGFSLYVEGQLVGALTMDALTVGAFDDIDPVAIETFAALTAATLRNIAQLKALKAQNQKQKSVTQTLIQQARSQHG | not soluble
MKLVLAVIQDADAAALMRALSEQHFEATKLASTGGFLREGNTTLMIGVDDQRLDTLRTLIGQTCRSRTRLVPARGLVSESEGGVAQEPVEVPVGGAVIFVLGVEDFVKV | not soluble
